From patent CN106117361A (UNIV SUN YAT SEN, dated 2016)

Target: T1, CD3-His蛋白(MP-5)
T1 construct: Immunogen and panning antigen; also called CD3蛋白
Assay: BLI (Octet RED96) off-rate screening, sdAb-SASA from expression medium captured on BSA-coated biosensor, CD3 at 100 nM in solution, 30°C, 1:1 Langmuir model

koff: 1.43e-05 s⁻¹
B1: A30322 抗CD3单域抗体 (sdAb) (VHH)
VHH: EVQLVECGGGLVQAGGSLRLSCAASGRTFDTMGWFRQAPGKEREFVAAVRWSSGNTYYGNTVKGRFTISRDTATNTVYLEMNSLKHEDTAVYYCAARLAGRGAADHWGQGTQVTVSS
notes: Llama-derived sdAb; Tested as crude sdAb-SASA protein in E. coli expression medium / culture supernatant (FASEBA format), not purified; also called sdAb-SASA蛋白; not shown: SASA fusion partner from the pFASEBA vector (sdAb-SASA protein in expression medium)
